# The supplement of paper PMC5998384
# Legend:
# [1] = tested on: HeLa Kyoto; assay: solubility in G1/S (NP-40 vs SDS abundance) (log2 ratio); higher = more soluble; settings: cell cycle stage: G1/S
# [2] = tested on: HeLa Kyoto; assay: melting temperature (median over replicates), in situ; higher = more thermally stable
# [3] = tested on: HeLa Kyoto; assay: solubility change mitosis vs G1/S (difference of NP-40 vs SDS log2 ratios) (log2 ratio difference); higher = more soluble in mitosis
# [4] = tested on: HeLa Kyoto; assay: thermal stability score vs G1/S (z-score of summed log2 fold changes over temperatures); higher = more thermally stable than in G1/S
# [5] = cell cycle stage: early G1 (4.5 h after nocodazole release)
# 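For melting temperature (median over replicates), in situ in this document: HeLa Kyoto cells synchronized by double thymidine or nocodazole block, proteins quantified by TMT10plex mass spectrometry, three independent biological replicates.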
# 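For solubility change mitosis vs G1/S (difference of NP-40 vs SDS log2 ratios) in this document: synchronized HeLa Kyoto cells (double thymidine block for G1/S, nocodazole release for mitosis), protein amounts in NP-40 versus SDS lysates quantified by mass spectrometry, three biological replicates.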
# 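For solubility in G1/S (NP-40 vs SDS abundance) in this document: HeLa Kyoto cells arrested at G1/S by double thymidine block, proteins quantified by TMT10plex mass spectrometry in mild NP-40 versus SDS extracts, three biological replicates.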
# 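For thermal stability score vs G1/S (z-score of summed log2 fold changes over temperatures) in this document: synchronized HeLa Kyoto cells, proteins quantified by TMT10plex mass spectrometry, three biological replicates, mitosis taken 0.5 h after nocodazole release, G1/S directly after double thymidine block.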
Sequence,solubility in G1/S (log2) [1],melting temperature ([2]; cell cycle stage: G1/S) [°C],melting temperature ([2]; cell cycle stage: mitosis) [°C],solubility change mitosis (log2) [3],"thermal stability score [4, 5]",thermal stability score ([4]; cell cycle stage: mitosis)
MDKVCAVFGGSRGIGRAVAQLMARKGYRLAVIARNLEGAKAAAGDLGGDHLAFSCDVAKEHDVQNTFEELEKHLGRVNFLVNAAGINRDGLLVRTKTEDMVSQLHTNLLGSMLTCKAAMRTMIQQQGGSIVNVGSIVGLKGNSGQSVYSASKGGLVGFSRALAKEVARKKIRVNVVAPGFVHTDMTKDLKEEHLKKNIPLGRFGETIEVAHAVVFLLESPYITGHVLVVDGGLQLIL [CBR4],0.0654,54,55.2,-0.0343,1.14,-0.318
MDLAAAAEPGAGSQHLEVRDEVAEKCQKLFLDFLEEFQSSDGEIKYLQLAEELIRPERNTLVVSFVDLEQFNQQLSTTIQEEFYRVYPYLCRALKTFVKDRKEIPLAKDFYVAFQDLPTRHKIRELTSSRIGLLTRISGQVVRTHPVHPELVSGTFLCLDCQTVIRDVEQQFKYTQPNICRNPVCANRRRFLLDTNKSRFVDFQKVRIQETQAELPRGSIPRSLEVILRAEAVESAQAGDKCDFTGTLIVVPDVSKLSTPGARAETNSRVSGVDGYETEGIRGLRALGVRDLSYRLVFLACCVAPTNPRFGGKELRDEEQTAESIKNQMTVKEWEKVFEMSQDKNLYHNLCTSLFPTIHGNDEVKRGVLLMLFGGVPKTTGEGTSLRGDINVCIVGDPSTAKSQFLKHVEEFSPRAVYTSGKASSAAGLTAAVVRDEESHEFVIEAGALMLADNGVCCIDEFDKMDVRDQVAIHEAMEQQTISITKAGVKATLNARTSILAAANPISGHYDRSKSLKQNINLSAPIMSRFDLFFILVDECNEVTDYAIARRIVDLHSRIEESIDRVYSLDDIRRYLLFARQFKPKISKESEDFIVEQYKHLRQRDGSGVTKSSWRITVRQLESMIRLSEAMARMHCCDEVQPKHVKEAFRLLNKSIIRVETPDVNLDQEEEIQMEVDEGAGGINGHADSPAPVNGINGYNEDINQESAPKASLRLGFSEYCRISNLIVLHLRKVEEEEDESALKRSELVNWYLKEIESEIDSEEELINKKRIIEKVIHRLTHYDHVLIELTQAGLKGSTEGSESYEEDPYLVVNPNYLLED [MCM6],-0.0881,50.6,50.7,-0.0695,3.18,4.76
MDLENKVKKMGLGHEQGFGAPCLKCKEKCEGFELHFWRKICRNCKCGQEEHDVLLSNEEDRKVGKLFEDTKYTTLIAKLKSDGIPMYKRNVMILTNPVAAKKNVSINTVTYEWAPPVQNQALARQYMQMLPKEKQPVAGSEGAQYRKKQLAKQLPAHDQDPSKCHELSPREVKEMEQFVKKYKSEALGVGDVKLPCEMDAQGPKQMNIPGGDRSTPAAVGAMEDKSAEHKRTQYSCYCCKLSMKEGDPAIYAERAGYDKLWHPACFVCSTCHELLVDMIYFWKNEKLYCGRHYCDSEKPRCAGCDELIFSNEYTQAENQNWHLKHFCCFDCDSILAGEIYVMVNDKPVCKPCYVKNHAVVCQGCHNAIDPEVQRVTYNNFSWHASTECFLCSCCSKCLIGQKFMPVEGMVFCSVECKKRMS [TES],0.0767,52,52.3,-0.111,-0.92,-1.54
MDLGAITKYSALHAKPNGLILQYGTAGFRTKAEHLDHVMFRMGLLAVLRSKQTKSTIGVMVTASHNPEEDNGVKLVDPLGEMLAPSWEEHATCLANAEEQDMQRVLIDISEKEAVNLQQDAFVVIGRDTRPSSEKLSQSVIDGVTVLGGQFHDYGLLTTPQLHYMVYCRNTGGRYGKATIEGYYQKLSKAFVELTKQASCSGDEYRSLKVDCANGIGALKLREMEHYFSQGLSVQLFNDGSKGKLNHLCGADFVKSHQKPPQGMEIKSNERCCSFDGDADRIVYYYHDADGHFHLIDGDKIATLISSFLKELLVEIGESLNIGVVQTAYANGSSTRYLEEVMKVPVYCTKTGVKHLHHKAQEFDIGVYFEANGHGTALFSTAVEMKIKQSAEQLEDKKRKAAKMLENIIDLFNQAAGDAISDMLVIEAILALKGLTVQQWDALYTDLPNRQLKVQVADRRVISTTDAERQAVTPPGLQEAINDLVKKYKLSRAFVRPSGTEDVVRVYAEADSQESADHLAHEVSLAVFQLAGGIGERPQPGF [PGM3],0.186,51.4,51.2,-0.0835,-0.282,-0.735
